Results from patent publication US20100316636A1.

Experiments:
[1] = molecular target: recombinant human IL-6R protein, monomeric form (human) (UniProt P08887); assay: Kinexa solution-phase competition immunoassay, monomer
[2] = molecular target: human IL-6 receptor on hIL-6-responsive cells (XG-1 myeloma line, HepG2 hepatoma line) (human) (UniProt P08887); assay: cell-based or functional assay
[3] = molecular target: hIL-6R-hFc (human) (UniProt P08887); assay: blocking immunoassay: 100 pM hIL-6R-hFc premixed with titrated antibody, free hIL-6R-hFc captured on coated hIL-6
[4] = molecular target: recombinant human IL-6R protein, monomeric form (human) (UniProt P08887); assay: SPR (BIAcore), captured antibody, monomeric hIL-6R injected
[5] = molecular target: recombinant monkey monomeric IL-6R protein (Macaca fascicularis, extracellular domain) (Macaca fascicularis); assay: SPR (BIAcore), antibody captured on anti-mouse Fc, monomeric IL-6R 1.25-40 nM injected
[6] = molecular target: recombinant human IL-6R protein, monomeric form (human) (UniProt P08887); assay: as above

recombinant human IL-6R protein, monomeric form (human), sequence (P08887 20-358 limits assumed): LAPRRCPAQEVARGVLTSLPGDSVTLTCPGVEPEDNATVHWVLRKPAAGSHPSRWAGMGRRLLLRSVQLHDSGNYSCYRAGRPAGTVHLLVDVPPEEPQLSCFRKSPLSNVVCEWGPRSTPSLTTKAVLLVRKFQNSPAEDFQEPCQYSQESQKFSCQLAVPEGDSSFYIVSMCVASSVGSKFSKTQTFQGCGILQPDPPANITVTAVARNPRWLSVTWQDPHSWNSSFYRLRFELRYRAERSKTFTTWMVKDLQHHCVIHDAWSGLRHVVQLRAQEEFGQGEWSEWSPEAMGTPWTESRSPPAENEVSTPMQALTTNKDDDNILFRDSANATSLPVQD
human IL-6 receptor on hIL-6-responsive cells (XG-1 myeloma line, HepG2 hepatoma line) (human), sequence (P08887 20-468): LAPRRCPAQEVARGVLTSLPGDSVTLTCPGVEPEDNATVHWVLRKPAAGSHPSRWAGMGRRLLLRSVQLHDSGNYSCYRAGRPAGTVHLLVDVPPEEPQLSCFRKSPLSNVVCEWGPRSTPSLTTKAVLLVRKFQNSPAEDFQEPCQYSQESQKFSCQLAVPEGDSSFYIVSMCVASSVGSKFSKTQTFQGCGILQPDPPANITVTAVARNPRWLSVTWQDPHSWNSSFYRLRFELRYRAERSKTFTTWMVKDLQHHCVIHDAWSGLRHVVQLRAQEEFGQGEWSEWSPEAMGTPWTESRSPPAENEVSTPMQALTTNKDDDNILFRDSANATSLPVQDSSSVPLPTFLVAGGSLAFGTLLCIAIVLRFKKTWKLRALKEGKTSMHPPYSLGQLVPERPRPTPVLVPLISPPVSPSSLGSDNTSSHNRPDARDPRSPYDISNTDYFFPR
hIL-6R-hFc (human), sequence (P08887 20-358): as the sequence (P08887 20-358 limits assumed) above
recombinant monkey monomeric IL-6R protein (Macaca fascicularis, extracellular domain) (Macaca fascicularis), sequence (P08887 other isoform, or with tags, fused parts or gaps): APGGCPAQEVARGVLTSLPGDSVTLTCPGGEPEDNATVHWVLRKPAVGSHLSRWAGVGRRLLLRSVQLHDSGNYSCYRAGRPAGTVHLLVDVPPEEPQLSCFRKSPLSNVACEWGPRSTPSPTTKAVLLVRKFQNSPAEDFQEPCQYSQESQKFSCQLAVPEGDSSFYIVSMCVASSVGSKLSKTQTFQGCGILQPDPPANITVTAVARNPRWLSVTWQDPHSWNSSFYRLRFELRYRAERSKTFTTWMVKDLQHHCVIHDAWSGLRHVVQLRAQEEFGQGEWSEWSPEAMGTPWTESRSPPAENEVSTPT

control: humanized monoclonal antibody to human IL-6R (U.S. Pat. No. 5,817,790 SEQ ID NO:69 and 71)
Kd [1]: 1.96 nM
HepG2/Stat3 Luciferase activity IC50 [2]: 0.854 nM
XG-1 cell proliferation Inhibition IC50 [2]: 1.5 nM
IC50 [3]: 2.2 nM
Kd [4]: 1.79 nM
Kd [5]: 1.17 nM
Kd [6]: 0.963 nM
